The source of these data is PMC6265330, “Compositional adaptability in NPM1-SURF6 scaffolding networks enabled by dynamic switching of phase separation mechanisms” (Nature Communications, 2018).

The target in the test is T1, S6N, N-terminal fragment of Surfeit locus protein 6 (SURF6), residues 1-182 (human, UniProt O75683 1-182).
T1 construct: Surfeit locus protein 6 (SURF6), human, 361 amino acids; N-terminal construct of residues 1-182 with R-motifs R1 and R2; In imaging experiments 10% was labelled with Alexa Fluor 647 at Cys19; also called SURF6 N-terminal construct; source: E. coli BL21 Rosetta 2 (DE3), purified from inclusion bodies (Ni-NTA under denaturing conditions, TEV cleavage, C4 HPLC)
T1 sequence (looked up): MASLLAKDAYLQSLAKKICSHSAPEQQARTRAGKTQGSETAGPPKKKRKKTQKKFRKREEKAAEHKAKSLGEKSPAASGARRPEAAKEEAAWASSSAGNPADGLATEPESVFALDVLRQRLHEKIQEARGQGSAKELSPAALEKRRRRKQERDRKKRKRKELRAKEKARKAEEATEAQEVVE
The experiment in a line: not stated; method and conditions not shown in the main text (Supplementary Fig. 13). As to conditions: both partners purified.

B1: IDR of NPM1 (domain or fragment, UniProt P06748 120-240, looked up)
chain: EEDAESEDEEEEDVKLLSISGKRSAPGGGSKVPQKKVKLAADEDDDDDDEEDDDEDDDDDDFDDEEAEEKAPVKKSIRDTPAKNAQKSNQNGKDSKPSSTPRSKGQESFKKQEKTPKTPKG
notes: Nucleophosmin (NPM1), central intrinsically disordered region; also called NPM1-IDR
Take B1: the affinity, expressed as Kd, was 350 nM.
